# Values joined by “and” are separate entries in the source; they are usually repeats but may differ in a detail not shown here. Equal entries are not always repeated.
# How the values were obtained:
# [1] = molecular target: human DLL1 protein (human) (UniProt O00548); assay: ELISA, maximum over 0.1-100 nM
# [2] = molecular target: human DLL4 protein (human) (UniProt Q9NR61); assay: ELISA, maximum over 0.1-100 nM
# [3] = molecular target: human DLL3 endogenously expressed on SHP77 and NCI-H82 cells (human) (UniProt Q9NYJ7); assay: FACS SHP77 cells, 4 nM
# human DLL3 endogenously expressed on SHP77 and NCI-H82 cells (human), sequence (Q9NYJ7 27-618): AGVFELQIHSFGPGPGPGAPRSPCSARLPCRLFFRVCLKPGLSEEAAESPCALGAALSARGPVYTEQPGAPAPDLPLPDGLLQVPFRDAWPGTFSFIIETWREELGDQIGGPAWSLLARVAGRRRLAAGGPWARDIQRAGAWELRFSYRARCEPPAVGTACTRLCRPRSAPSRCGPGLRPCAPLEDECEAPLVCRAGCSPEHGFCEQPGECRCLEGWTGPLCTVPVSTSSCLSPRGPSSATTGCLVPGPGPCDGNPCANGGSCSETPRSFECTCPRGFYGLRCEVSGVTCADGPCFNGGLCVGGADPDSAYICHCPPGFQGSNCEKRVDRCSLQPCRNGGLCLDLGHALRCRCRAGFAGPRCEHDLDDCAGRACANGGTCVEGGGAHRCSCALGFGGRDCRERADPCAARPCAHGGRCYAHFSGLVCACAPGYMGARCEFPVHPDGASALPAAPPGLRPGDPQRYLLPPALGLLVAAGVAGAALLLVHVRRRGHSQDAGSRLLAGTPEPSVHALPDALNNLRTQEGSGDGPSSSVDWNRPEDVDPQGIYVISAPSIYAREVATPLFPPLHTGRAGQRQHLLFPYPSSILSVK
# [4] = molecular target: human DLL3 endogenously expressed on SHP77 and NCI-H82 cells (human) (UniProt Q9NYJ7); assay: FACS SHP77 cells, 20 nM
# [5] = molecular target: human DLL3 endogenously expressed on SHP77 and NCI-H82 cells (human) (UniProt Q9NYJ7); assay: FACS SHP77 cells, 0.8 nM
# [6] = molecular target: human DLL3 endogenously expressed on SHP77 and NCI-H82 cells (human) (UniProt Q9NYJ7); assay: FACS SHP77 cells, 100 nM
# [7] = molecular target: human DLL3 endogenously expressed on SHP77 and NCI-H82 cells (human) (UniProt Q9NYJ7); assay: FACS SHP77 cells, 0.16 nM
# [8] = molecular target: human DLL3 endogenously expressed on SHP77 and NCI-H82 cells (human) (UniProt Q9NYJ7); assay: FACS SHP77 cells, 0.032 nM
# [9] = molecular target: human DLL3 endogenously expressed on SHP77 and NCI-H82 cells (human) (UniProt Q9NYJ7); assay: FACS SHP77 cells, 0.0064 nM
# [10] = molecular target: human DLL3 endogenously expressed on SHP77 and NCI-H82 cells (human) (UniProt Q9NYJ7); assay: FACS SHP77 cells, 0.00128 nM
# [11] = molecular target: monkey DLL3 on CHO K1-cyno DLL3 cells (cynomolgus monkey DLL3 extracellular segment joined to EpCAM transmembrane and intracellular regions) (cynomolgus monkey); assay: FACS, CHO K1-cyno DLL3 cells, 4 nM antibody
# monkey DLL3 on CHO K1-cyno DLL3 cells (cynomolgus monkey DLL3 extracellular segment joined to EpCAM transmembrane and intracellular regions) (cynomolgus monkey), sequence (chain, as listed by the source limits assumed): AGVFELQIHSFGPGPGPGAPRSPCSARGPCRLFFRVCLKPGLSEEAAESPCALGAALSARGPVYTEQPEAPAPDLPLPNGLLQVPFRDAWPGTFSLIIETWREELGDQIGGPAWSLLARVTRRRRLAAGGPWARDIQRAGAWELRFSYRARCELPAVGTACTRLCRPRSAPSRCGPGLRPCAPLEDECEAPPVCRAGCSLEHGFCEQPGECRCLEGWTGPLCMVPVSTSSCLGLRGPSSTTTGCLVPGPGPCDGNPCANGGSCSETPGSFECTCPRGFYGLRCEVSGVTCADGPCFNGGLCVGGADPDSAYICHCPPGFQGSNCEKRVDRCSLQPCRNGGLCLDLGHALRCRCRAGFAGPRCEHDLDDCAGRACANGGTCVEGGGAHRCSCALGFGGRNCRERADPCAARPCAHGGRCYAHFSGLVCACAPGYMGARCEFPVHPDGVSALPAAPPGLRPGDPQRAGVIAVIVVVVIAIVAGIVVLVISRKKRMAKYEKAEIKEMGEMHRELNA
# [12] = molecular target: monkey DLL3 on CHO K1-cyno DLL3 cells (cynomolgus monkey DLL3 extracellular segment joined to EpCAM transmembrane and intracellular regions) (cynomolgus monkey); assay: FACS, CHO K1-cyno DLL3 cells, 20 nM antibody
# [13] = molecular target: monkey DLL3 on CHO K1-cyno DLL3 cells (cynomolgus monkey DLL3 extracellular segment joined to EpCAM transmembrane and intracellular regions) (cynomolgus monkey); assay: FACS, CHO K1-cyno DLL3 cells, 0.8 nM antibody
# [14] = molecular target: monkey DLL3 on CHO K1-cyno DLL3 cells (cynomolgus monkey DLL3 extracellular segment joined to EpCAM transmembrane and intracellular regions) (cynomolgus monkey); assay: FACS, CHO K1-cyno DLL3 cells, 100 nM antibody
# [15] = molecular target: monkey DLL3 on CHO K1-cyno DLL3 cells (cynomolgus monkey DLL3 extracellular segment joined to EpCAM transmembrane and intracellular regions) (cynomolgus monkey); assay: FACS, CHO K1-cyno DLL3 cells, 0.16 nM antibody
# [16] = molecular target: monkey DLL3 on CHO K1-cyno DLL3 cells (cynomolgus monkey DLL3 extracellular segment joined to EpCAM transmembrane and intracellular regions) (cynomolgus monkey); assay: FACS, CHO K1-cyno DLL3 cells, 0.032 nM antibody
# [17] = molecular target: monkey DLL3 on CHO K1-cyno DLL3 cells (cynomolgus monkey DLL3 extracellular segment joined to EpCAM transmembrane and intracellular regions) (cynomolgus monkey); assay: FACS, CHO K1-cyno DLL3 cells, 0.0064 nM antibody
# [18] = molecular target: monkey DLL3 on CHO K1-cyno DLL3 cells (cynomolgus monkey DLL3 extracellular segment joined to EpCAM transmembrane and intracellular regions) (cynomolgus monkey); assay: FACS, CHO K1-cyno DLL3 cells, 0.00128 nM antibody
# human DLL4 protein (human), sequence (Q9NR61 27-524 limits assumed): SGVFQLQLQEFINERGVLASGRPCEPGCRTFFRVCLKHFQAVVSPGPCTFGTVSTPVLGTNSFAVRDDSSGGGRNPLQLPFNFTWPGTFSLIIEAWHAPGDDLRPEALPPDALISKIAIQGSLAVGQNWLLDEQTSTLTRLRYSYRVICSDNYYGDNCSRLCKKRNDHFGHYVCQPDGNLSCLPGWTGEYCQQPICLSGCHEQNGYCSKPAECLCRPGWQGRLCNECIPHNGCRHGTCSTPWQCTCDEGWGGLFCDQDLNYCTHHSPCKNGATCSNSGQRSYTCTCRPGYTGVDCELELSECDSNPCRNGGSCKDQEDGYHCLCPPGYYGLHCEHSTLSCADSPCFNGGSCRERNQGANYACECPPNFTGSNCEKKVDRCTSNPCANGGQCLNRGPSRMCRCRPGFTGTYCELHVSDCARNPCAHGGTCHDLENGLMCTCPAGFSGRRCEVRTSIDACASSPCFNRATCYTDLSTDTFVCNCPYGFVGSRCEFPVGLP
# human DLL1 protein (human), sequence (O00548 18-540 limits assumed): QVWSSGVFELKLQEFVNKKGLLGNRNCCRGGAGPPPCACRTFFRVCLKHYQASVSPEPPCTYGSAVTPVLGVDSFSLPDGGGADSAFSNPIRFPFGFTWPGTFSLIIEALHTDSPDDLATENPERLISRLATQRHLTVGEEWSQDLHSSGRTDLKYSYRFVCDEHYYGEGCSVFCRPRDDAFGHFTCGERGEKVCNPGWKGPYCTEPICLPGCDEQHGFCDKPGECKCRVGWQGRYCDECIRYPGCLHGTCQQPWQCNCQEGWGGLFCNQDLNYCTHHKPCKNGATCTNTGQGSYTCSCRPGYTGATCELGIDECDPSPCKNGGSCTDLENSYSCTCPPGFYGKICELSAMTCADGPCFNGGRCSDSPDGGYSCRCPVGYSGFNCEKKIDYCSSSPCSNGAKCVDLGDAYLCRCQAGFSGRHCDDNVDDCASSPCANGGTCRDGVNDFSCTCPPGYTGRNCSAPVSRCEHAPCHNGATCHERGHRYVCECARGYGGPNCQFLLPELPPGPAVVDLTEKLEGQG
Substance,Emax of OD450 nm binding value [1],Emax of OD450 nm binding value [2],MFI [3],MFI [4],MFI [5],MFI [6],MFI [7],MFI [8],MFI [9],MFI [10],MFI [11],MFI [12],MFI [13],MFI [14],MFI [15],MFI [16],MFI [17],MFI [18]
hIgG1 (antibody),0.04 OD450 and 0.05 OD450 and 0.07 OD450,0.04 OD450 and 0.07 OD450 and 0.05 OD450,–,–,–,–,–,–,–,–,–,–,–,–,–,–,–,–
SC16.56 (antibody),0.05 OD450,0.05 OD450,476 MFI and 517 MFI,500 MFI and 566 MFI,465 MFI and 478 MFI,529 MFI and 628 MFI,432 MFI and 411 MFI,334 MFI and 234 MFI,235 MFI and 146 MFI,188 MFI and 146 MFI,5040 MFI and 2330 MFI,5010 MFI and 2630 MFI,4510 MFI and 1900 MFI,4930 MFI and 2330 MFI,1970 MFI and 700 MFI,690 MFI and 299 MFI,314 MFI and 189 MFI,161 MFI and 185 MFI
